Patent US6352723B1, “Brain-derived alkali-soluble immunoregulatory composition” (priority 1999, dated 2002)
Where “and” joins values, the source holds several entries; their conditions need not be identical. Equal entries are not always repeated.

B1: chicken ovalbumin (protein, UniProt P01012 2-386, looked up)
Ovalbumin: GSIGAASMEFCFDVFKELKVHHANENIFYCPIAIMSALAMVYLGAKDSTRTQINKVVRFDKLPGFGDSIEAQCGTSVNVHSSLRDILNQITKPNDVYSFSLASRLYAEERYPILPEYLQCVKELYRGGLEPINFQTAADQARELINSWVESQTNGIIRNVLQPSSVDSQTAMVLVNAIVFKGLWEKAFKDEDTQAMPFRVTEQESKPVQMMYQIGLFRVASMASEKMKILELPFASGTMSMLVLLPDEVSGLEQLESIINFEKLTEWTSSNVMEERKIKVYLPRMKMEEKYNLTSVLMAMGITDVFSSSANLSGISSAESLKISQAVHAAHAEINEAGREVVGSAEAGVDAASVSEEFRADHPFLFCIKHIATNAVLFFGRCVSP
notes: Stimulating antigen

System: lymphocytes
Test: Proliferation assay for stimulated lymphocytes (tritiated thymidine incorporation; % suppression, SI)
Assay type: cell-based, mice
Conditions: for SI (stimulation index): stimulant alone: OVA 500 μg/ml, PPD 25 μg/ml, ConA 2.5 μg/ml, LPS 10 μg/ml, ionomycin 100 ng/ml with 1 ng/ml PMA

Row | Molecule | SI (stimulation index) | SI for chicken ovalbumin incubated with brain homogenate (homogenate removed by centrifugation and 0.2μ filter, n=4) | SI for chicken ovalbumin incubated alone (incubated without brain homogenate, n=4)
1 | ionomycin at 100 ng/ml with 1 ng/ml phorbol 12-myristate 13 acetate (PMA) [Ionomycin/PMA, reference compound] | 23.6 ± 11.2 |  | 
2 | Concanavalin A [ConA, reference compound] | 31.2 ± 32.7 |  | 
3 | B1 | 8.8 ± 5.8 and 7.9 ± 4.2 | 4.8±1.8 | 4.1±0.9
